# Laboratory results reported in patent US8455433B2, “Process for solubilizing glucagon-like peptide 1 compounds” (Eli Lilly and Company, priority 2000, dated 2013).
# Experiments:
# [1] = Secondary structure by Fourier Transform Infrared Spectroscopy (FTIR); assay type: physicochemical; conditions: for percent alpha helix content / percent beta sheet content: Table 3, pH 10.5 excursion experiment; for alpha helix percent 1657 cm^-1 / beta sheet character percent 1624 + 1696 cm^-1: Samples 1-5 before and 1A-5A after base excursion pH 12.3, Table 2; for 1624 + 1696 cm^-1 total beta sheet, % / 1657 cm^-1 Alpha helix, %: purified, lyophilized batches, Table 1
# Experimental: Four different batches of purified, lyophilized Val-8 GLP-1(7-37)OH were analyzed for secondary structure characteristics by Fourier Transform Infra-red Spectroscopy (FTIR) to assess alpha helix and beta sheet content of the preparations. Deconvolution was done on the Amide I region (1750-1600 cm^−1) using BioRad Win-IR Pro Software version 2.5. The results are shown below in the Table 1:
# Each of Samples 1-5 was measured for secondary structure characteristics by Fourier Transform Infrared Spectroscopy (FTIR). In addition, each Sample 1-5 was placed into 20 mM phosphate solution (pH 7.2) and the pH raised to 12.3 by addition of 1N sodium hydroxide for no more than 3 minutes. All samples then dissolved and the solutions became clear. The pH of each solution was then adjusted to 7.0 by addition of 1N hydrochloric acid. Samples 1A-5A, obtained from Samples 1-5, respectively, were then obtained by lyophilization of the solutions and dried in vacuo. The secondary structural characteristics of Samples 1A-5A were assessed by FTIR. The results of the FTIR analysis of Samples 1-5 and 1A-5A are shown below in Table 2:
# In another example of the effects of base excursion on secondary structure, a purified, lyophilized sample of Val^8-GLP-1(7-37)OH purified by reversed chromatography was either lyophilized (0.1 gram) or precipitated by addition of sufficient 3.0 M sodium dihydrogen phosphate (pH 3.80) to result in a 0.6 M phosphate solution. The resultant precipitate was washed with 10 mM sodium acetate at pH 5.5 and the washed precipitate was dried in vacuo. A second portion of the washed precipitate was solubilized by raising the pH of the material to 10.5 for 30 minutes at room temperature by addition of 1N sodium hydroxide. The pH of that solution was then reduced to 7.0 by addition of 1.0 N hydrochloric acid and the solution was then lyophilized. The secondary structure of the three samples was determined by FTIR.
# physchem = assay type: physicochemical
# Experimental: Val^8-GLP-1(7-37)OH (1 gram) lyophilized powder was dissolved in 25 mM ammonium bicarbonate, pH 8.0 (100 ml). The solution was stirred with a TEFLON stir bar at about 200 rpm at 21° C. (ambient temperature) for 16 hours. At varying times, usually within 30 minutes, the solution became hazy. On continued stirring, the haze became visibly more dense. The kinetics of the turbidity were measured by rate of formation of turbidity, i.e. absorbance at 340 nm. The precipitated protein was harvested either by filtration, e.g. Whatman 1 filter disc, or centrifugation. The supernatant was assayed for protein content either by Biuret Colorimetric Assay obtained from Pierce (Rockford, Ill.) or UV absorbance at 280 nm. By either method, the protein precipitate constituted in excess of 90% of the starting material, i.e. there was less than 10% of the protein remaining in the supernatant fraction. The collected precipitate was dried in vacuo, i.e. in a lyophilizer. The resultant precipitated (0.96 grams) material was soluble in 20 mM phosphate at pH 7.2 at less than 0.01 mg/ml. Solubility was tested by suspension of the solid in the buffer, adjustment of pH, if necessary, and filtration through a 0.2 micron filter. The protein content of the filtrate was tested by either Biuret Colorimetric Assay, UV absorbance at 280 nm, or by high pressure liquid chromatography analysis (HPLC) analysis. […]
compound,measurement,setting,value
Lyophilized mainstream: Val^8-GLP-1(7-37)OH purified by reversed chromatography and lyophilized,percent alpha helix content,[1],71%
same,percent beta sheet content,[1],16%
"3A: Sample 3 after pH 12.3 excursion, neutralized to 7.0 and lyophilized [Sample 3A]",alpha helix percent 1657 cm^-1,[1],62.2%
same,beta sheet character percent 1624 + 1696 cm^-1,[1],23.7%
Sample 2: Val^8-GLP-1(7-37)OH isoelectric precipitate approaching pH 5.5 from the alkaline side,alpha helix percent 1657 cm^-1,[1],51.9%
same,beta sheet character percent 1624 + 1696 cm^-1,[1],40.5%
same,"1624 + 1696 cm^-1 total beta sheet, %",[1],29.3%
same,"1657 cm^-1 Alpha helix, %",[1],62.8%
"Phosphate precipitate: Val^8-GLP-1(7-37)OH precipitated in 0.6 M phosphate, washed and dried in vacuo",percent alpha helix content,[1],57%
same,percent beta sheet content,[1],35%
Sample 4: soluble fraction of Val^8-GLP-1(7-37)OH stirred in 10 mM phosphate pH 7.2,alpha helix percent 1657 cm^-1,[1],75.8%
same,beta sheet character percent 1624 + 1696 cm^-1,[1],14.7%
same,"1624 + 1696 cm^-1 total beta sheet, %",[1],28.9%
same,"1657 cm^-1 Alpha helix, %",[1],63.6%
CC[C@H](C)[C@H](NC(=O)[C@H](Cc1ccccc1)NC(=O)[C@H](CCC(=O)O)NC(=O)[C@H](CCCCN)NC(=O)[C@H](C)NC(=O)[C@H](C)NC(=O)[C@H](CCC(N)=O)NC(=O)CNC(=O)[C@H](CCC(=O)O)NC(=O)[C@H](CC(C)C)NC(=O)[C@H](Cc1ccc(O)cc1)NC(=O)[C@H](CO)NC(=O)[C@H](CO)NC(=O)[C@@H](NC(=O)[C@H](CC(=O)O)NC(=O)[C@H](CO)NC(=O)[C@@H](NC(=O)[C@H](Cc1ccccc1)NC(=O)[C@@H](NC(=O)CNC(=O)[C@H](CCC(=O)O)NC(=O)[C@H](C)NC(=O)[C@@H](N)Cc1c[nH]cn1)[C@@H](C)O)[C@@H](C)O)C(C)C)C(=O)N[C@@H](C)C(=O)N[C@@H](Cc1c[nH]c2ccccc12)C(=O)N[C@@H](CC(C)C)C(=O)N[C@H](C(=O)N[C@@H](CCCCN)C(=O)NCC(=O)N[C@@H](CCCN=C(N)N)C(=O)NCC(=O)O)C(C)C [GLP-1(7-37)OH],solubility thermodynamic,physchem; solubility,< 100 µg/mL
same,solubility thermodynamic,physchem; solubility (usually),< 50 µg/mL
Sample 1: Val^8-GLP-1(7-37)OH isoelectric precipitate at pH 5.5 from 10 mM acetic acid,alpha helix percent 1657 cm^-1,[1],24.9%
same,beta sheet character percent 1624 + 1696 cm^-1,[1],69.8%
same,"1624 + 1696 cm^-1 total beta sheet, %",[1],31.4%
same,"1657 cm^-1 Alpha helix, %",[1],62.7%
"2A: Sample 2 after pH 12.3 excursion, neutralized to 7.0 and lyophilized [Sample 2A]",alpha helix percent 1657 cm^-1,[1],85.9%
same,beta sheet character percent 1624 + 1696 cm^-1,[1],none observed
"4A: Sample 4 after pH 12.3 excursion, neutralized to 7.0 and lyophilized [Sample 4A]",alpha helix percent 1657 cm^-1,[1],86.0%
same,beta sheet character percent 1624 + 1696 cm^-1,[1],none observed
"5A: Sample 5 after pH 12.3 excursion, neutralized to 7.0 and lyophilized [Sample 5A]",alpha helix percent 1657 cm^-1,[1],90.6%
same,beta sheet character percent 1624 + 1696 cm^-1,[1],none observed
Sample 5: precipitated fraction of Val^8-GLP-1(7-37)OH stirred in 10 mM phosphate pH 7.2,alpha helix percent 1657 cm^-1,[1],12.9%
same,beta sheet character percent 1624 + 1696 cm^-1,[1],57.3%
"pH 10.5 excursion: washed phosphate precipitate solubilized at pH 10.5 for 30 minutes, reduced to pH 7.0, lyophilized",percent alpha helix content,[1],71%
same,percent beta sheet content,[1],13%
Sample 3: gelled Val^8-GLP-1(7-37)OH from acetic acid/25% acetonitrile incubated at 4 C for 3.1 months,alpha helix percent 1657 cm^-1,[1],25.5%
same,beta sheet character percent 1624 + 1696 cm^-1,[1],70.0%
same,"1624 + 1696 cm^-1 total beta sheet, %",[1],30.6%
same,"1657 cm^-1 Alpha helix, %",[1],63.6%
